The target in the experiment is T1, Amylin 3(a) receptor (human calcitonin receptor (CTa) with RAMP-3) (human, UniProt P30988 25-474; O60896 24-148, limits assumed).
T1 sequence (looked up) 1: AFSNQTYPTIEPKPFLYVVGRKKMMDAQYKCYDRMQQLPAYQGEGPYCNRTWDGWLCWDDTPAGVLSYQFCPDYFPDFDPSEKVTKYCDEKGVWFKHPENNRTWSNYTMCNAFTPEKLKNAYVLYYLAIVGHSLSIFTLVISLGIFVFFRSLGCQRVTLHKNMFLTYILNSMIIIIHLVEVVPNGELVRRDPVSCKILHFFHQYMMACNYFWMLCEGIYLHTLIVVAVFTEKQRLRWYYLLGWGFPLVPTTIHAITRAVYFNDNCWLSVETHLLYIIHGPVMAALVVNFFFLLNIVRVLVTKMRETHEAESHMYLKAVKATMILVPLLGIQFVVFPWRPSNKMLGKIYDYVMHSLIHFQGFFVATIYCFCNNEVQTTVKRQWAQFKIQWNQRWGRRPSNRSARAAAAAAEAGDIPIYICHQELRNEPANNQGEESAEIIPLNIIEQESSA
T1 sequence (looked up) 2: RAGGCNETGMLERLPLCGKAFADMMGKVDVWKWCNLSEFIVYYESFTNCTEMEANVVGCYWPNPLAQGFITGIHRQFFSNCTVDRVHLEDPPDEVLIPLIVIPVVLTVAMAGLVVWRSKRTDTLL
The experiment in a line: cell-based or functional assay.

*1 amine or outer side, *2 acyl side, *3 side chain or, on linkers, in order; H or OH if unused. Bridges are numbered along the chain shown (N, C = ends). Where no end group is shown, it is not given here. Side-chain parts run from the residue outwards. The star is where a group is joined. X2 = (S)‑4‑Carboxy‑4‑(19-carboxynonadecanoylamino)butyryl, O=C(O)CCCCCCCCCCCCCCCCCCC(=O)N[C@@H](CCC(=O)*)C(=O)O; C20 diacid = O=C(O)CCCCCCCCCCCCCCCCCCC(=O)*; γGlu = O=C(O)[C@H](CCC(=O)[*:2])N[*:1]; AEEA = NCCOCCOCC(=O)O

B1: N-alpha-[2-(2-{2-[4-(S)-Carboxy-4-(19-carboxynonadecanoylamino)butyrylamino]ethoxy}ethoxy)acetyl]-His-[His1,His17]-pramlintide (peptide)
peptide: {C20 diacid-γGlu-AEEA}-HHCNTATCATQRLANFLHHSSNNFGPILPPTNVGSNTY-NH2
modifications: disulfide 3-8
SMILES: CC[C@H](C)[C@H](NC(=O)[C@@H]1CCCN1C(=O)CNC(=O)[C@H](Cc1ccccc1)NC(=O)[C@H](CC(N)=O)NC(=O)[C@H](CC(N)=O)NC(=O)[C@H](CO)NC(=O)[C@H](CO)NC(=O)[C@H](Cc1c[nH]cn1)NC(=O)[C@H](Cc1c[nH]cn1)NC(=O)[C@H](CC(C)C)NC(=O)[C@H](Cc1ccccc1)NC(=O)[C@H](CC(N)=O)NC(=O)[C@H](C)NC(=O)[C@H](CC(C)C)NC(=O)[C@H](CCCNC(=N)N)NC(=O)[C@H](CCC(N)=O)NC(=O)[C@@H](NC(=O)[C@H](C)NC(=O)[C@@H]1CSSC[C@H](NC(=O)[C@H](Cc2c[nH]cn2)NC(=O)[C@H](Cc2c[nH]cn2)NC(=O)COCCOCCNC(=O)CC[C@H](NC(=O)CCCCCCCCCCCCCCCCCCC(=O)O)C(=O)O)C(=O)N[C@@H](CC(N)=O)C(=O)N[C@@H]([C@@H](C)O)C(=O)N[C@@H](C)C(=O)N[C@@H]([C@@H](C)O)C(=O)N1)[C@@H](C)O)C(=O)N[C@@H](CC(C)C)C(=O)N1CCC[C@H]1C(=O)N1CCC[C@H]1C(=O)N[C@H](C(=O)N[C@@H](CC(N)=O)C(=O)N[C@H](C(=O)NCC(=O)N[C@@H](CO)C(=O)N[C@@H](CC(N)=O)C(=O)N[C@H](C(=O)N[C@@H](Cc1ccc(O)cc1)C(N)=O)[C@@H](C)O)C(C)C)[C@@H](C)O
Regarding B1, the “Potency Luciferase” value is 100 pM.

B2: N-alpha-[(S)-4-Carboxy-4-(19-carboxynonadecanoylamino)butyryl]-[Asp14,His17]-pramlintide (2-37) (peptide)
peptide: {C20 diacid-γGlu}-CNTATCATQRLADFLHHSSNNFGPILPPTNVGSNTY-NH2
modifications: disulfide 1-6
SMILES: CC[C@H](C)[C@H](NC(=O)[C@@H]1CCCN1C(=O)CNC(=O)[C@H](Cc1ccccc1)NC(=O)[C@H](CC(N)=O)NC(=O)[C@H](CC(N)=O)NC(=O)[C@H](CO)NC(=O)[C@H](CO)NC(=O)[C@H](Cc1c[nH]cn1)NC(=O)[C@H](Cc1c[nH]cn1)NC(=O)[C@H](CC(C)C)NC(=O)[C@H](Cc1ccccc1)NC(=O)[C@H](CC(=O)O)NC(=O)[C@H](C)NC(=O)[C@H](CC(C)C)NC(=O)[C@H](CCCNC(=N)N)NC(=O)[C@H](CCC(N)=O)NC(=O)[C@@H](NC(=O)[C@H](C)NC(=O)[C@@H]1CSSC[C@H](NC(=O)CC[C@H](NC(=O)CCCCCCCCCCCCCCCCCCC(=O)O)C(=O)O)C(=O)N[C@@H](CC(N)=O)C(=O)N[C@@H]([C@@H](C)O)C(=O)N[C@@H](C)C(=O)N[C@@H]([C@@H](C)O)C(=O)N1)[C@@H](C)O)C(=O)N[C@@H](CC(C)C)C(=O)N1CCC[C@H]1C(=O)N1CCC[C@H]1C(=O)N[C@H](C(=O)N[C@@H](CC(N)=O)C(=O)N[C@H](C(=O)NCC(=O)N[C@@H](CO)C(=O)N[C@@H](CC(N)=O)C(=O)N[C@H](C(=O)N[C@@H](Cc1ccc(O)cc1)C(N)=O)[C@@H](C)O)C(C)C)[C@@H](C)O
On to B2, for which the “Potency Luciferase” value worked out at 100 pM.

B3: N-alpha-[(S)-4-Carboxy-4-(19-carboxynonadecanoylamino)butyryl]-Glu-Arg-[Glu1,His17,Gln21,Ala25,Pro26,Ser28,Ser29]-pramlintide (peptide)
peptide: X2-ERECNTATCATQRLANFLHHSSQNFGAPLSSTNVGSNTY-NH2
modifications: disulfide 4-9
SMILES: CC(C)C[C@H](NC(=O)[C@H](CCCNC(=N)N)NC(=O)[C@H](CCC(N)=O)NC(=O)[C@@H](NC(=O)[C@H](C)NC(=O)[C@@H]1CSSC[C@H](NC(=O)[C@H](CCC(=O)O)NC(=O)[C@H](CCCNC(=N)N)NC(=O)[C@H](CCC(=O)O)NC(=O)CC[C@H](NC(=O)CCCCCCCCCCCCCCCCCCC(=O)O)C(=O)O)C(=O)N[C@@H](CC(N)=O)C(=O)N[C@@H]([C@@H](C)O)C(=O)N[C@@H](C)C(=O)N[C@@H]([C@@H](C)O)C(=O)N1)[C@@H](C)O)C(=O)N[C@@H](C)C(=O)N[C@@H](CC(N)=O)C(=O)N[C@@H](Cc1ccccc1)C(=O)N[C@@H](CC(C)C)C(=O)N[C@@H](Cc1c[nH]cn1)C(=O)N[C@@H](Cc1c[nH]cn1)C(=O)N[C@@H](CO)C(=O)N[C@@H](CO)C(=O)N[C@@H](CCC(N)=O)C(=O)N[C@@H](CC(N)=O)C(=O)N[C@@H](Cc1ccccc1)C(=O)NCC(=O)N[C@@H](C)C(=O)N1CCC[C@H]1C(=O)N[C@@H](CC(C)C)C(=O)N[C@@H](CO)C(=O)N[C@@H](CO)C(=O)N[C@H](C(=O)N[C@@H](CC(N)=O)C(=O)N[C@H](C(=O)NCC(=O)N[C@@H](CO)C(=O)N[C@@H](CC(N)=O)C(=O)N[C@H](C(=O)N[C@@H](Cc1ccc(O)cc1)C(N)=O)[C@@H](C)O)C(C)C)[C@@H](C)O
Take B3: the “Potency Luciferase” value is 100 pM. The result for KCK([Glu-Glu-Glu-Glu-C20 diacid])TATCATQRLANFLHHSSDNFGPILPPTNVGSNTY-NH2 (disulfide 2-7) [N-epsilon3-(19-carboxynonadecanoyl-Glu-Glu-Glu-Glu)-[Lys3,His17,Asp21]-pramlintide] reads 2000 pM.

B4: N-alpha-[(S)-4-Carboxy-4-(19-carboxynonadecanoylamino)butyryl]-His-Arg-[His17]-pramlintide (peptide)
peptide: HRKCNTATCATQRLANFLHHSSNNFGPILPPTNVGSNTY-NH2
modifications: disulfide 4-9; not fully specified (N-terminus); printed as N-alpha-[(S)-4-Carboxy-4-(19-carboxynonadecanoylamino)butyryl]-His-Arg-[His17]-pramlintide
On to B4, for which the “Potency Luciferase” value worked out at 100 pM.

For the molecule {C20 diacid-γGlu-AEEA}-HCNTATCATQRLANFLHHSSNNFGPILPPTNVGSNTY-NH2 (disulfide 2-7), the “Potency Luciferase” value is 90 pM.

B5: N-alpha-[(S)-4-Carboxy-4-(19-carboxynonadecanoylamino)butyryl]-Glu-Arg-[Glu1,Asp14,His17,Ala25,Pro26,Ser28,Ser29]-pramlintide (peptide)
peptide: X2-ERECNTATCATQRLADFLHHSSNNFGAPLSSTNVGSNTY-NH2
modifications: disulfide 4-9
SMILES: CC(C)C[C@H](NC(=O)[C@H](CCCNC(=N)N)NC(=O)[C@H](CCC(N)=O)NC(=O)[C@@H](NC(=O)[C@H](C)NC(=O)[C@@H]1CSSC[C@H](NC(=O)[C@H](CCC(=O)O)NC(=O)[C@H](CCCNC(=N)N)NC(=O)[C@H](CCC(=O)O)NC(=O)CC[C@H](NC(=O)CCCCCCCCCCCCCCCCCCC(=O)O)C(=O)O)C(=O)N[C@@H](CC(N)=O)C(=O)N[C@@H]([C@@H](C)O)C(=O)N[C@@H](C)C(=O)N[C@@H]([C@@H](C)O)C(=O)N1)[C@@H](C)O)C(=O)N[C@@H](C)C(=O)N[C@@H](CC(=O)O)C(=O)N[C@@H](Cc1ccccc1)C(=O)N[C@@H](CC(C)C)C(=O)N[C@@H](Cc1c[nH]cn1)C(=O)N[C@@H](Cc1c[nH]cn1)C(=O)N[C@@H](CO)C(=O)N[C@@H](CO)C(=O)N[C@@H](CC(N)=O)C(=O)N[C@@H](CC(N)=O)C(=O)N[C@@H](Cc1ccccc1)C(=O)NCC(=O)N[C@@H](C)C(=O)N1CCC[C@H]1C(=O)N[C@@H](CC(C)C)C(=O)N[C@@H](CO)C(=O)N[C@@H](CO)C(=O)N[C@H](C(=O)N[C@@H](CC(N)=O)C(=O)N[C@H](C(=O)NCC(=O)N[C@@H](CO)C(=O)N[C@@H](CC(N)=O)C(=O)N[C@H](C(=O)N[C@@H](Cc1ccc(O)cc1)C(N)=O)[C@@H](C)O)C(C)C)[C@@H](C)O
Turning to B5, the “Potency Luciferase” value is 600 pM.

B6: N-alpha-[(S)-4-Carboxy-4-(19-carboxynonadecanoylamino)butyryl]-His-His-[His1,His17]-pramlintide (peptide)
peptide: HHHCNTATCATQRLANFLHHSSNNFGPILPPTNVGSNTY-NH2
modifications: disulfide 4-9; not fully specified (N-terminus); printed as N-alpha-[(S)-4-Carboxy-4-(19-carboxynonadecanoylamino)butyryl]-His-His-[His1,His17]-pramlintide
For the molecule B6, the “Potency Luciferase” value was found to be 60 pM.
